Measurements taken from PMC5621659.

Assays:
Assay in all cases: ELISA
[1] = biological target: recombinant human insulin receptor (IR) (human) (UniProt P06213)
[2] = biological target: C-terminal truncated apoE3 (aa1-186)
[3] = biological target: C-terminal truncated apoE4 (aa1-186)

Row | percent reduction of insulin-IR binding at 16 μg/ml [1] | percent reduction of binding against FL apoE [2] | percent reduction of binding against FL apoE [3] | Substance
1 | 50% | – | – | recombinant human apoE4 (from UniProt P02649 19-317) (natural protein)
2 | – | 50% | 30% | recombinant human insulin receptor (IR) (from UniProt P06213 28-1382)
